Source: PMC5412023

Experiments:
[1] = molecular target: GST-TET2 CR (cysteine-rich domain of TET2, residues 1129-1322, fused to glutathione S-transferase), wild type (UniProt Q6N021); test: MST; microscale thermophoresis, Monolith NT.115, analysed by PRISM; biotinylated histone H3 peptides with GST-TET2 CR wild type or W1291R
GST-TET2 CR W1291R = GST-TET2 CR W1291R (UniProt Q6N021); test: as above
[2] = molecular target: GST-TET2 CR (cysteine-rich domain of TET2, residues 1129-1322, fused to glutathione S-transferase), wild type (UniProt Q6N021); test: MST; microscale thermophoresis, Monolith NT.115, analysed by PRISM; mononucleosome binding to the wild-type CR domain

Row | Kd [1] [nM] | Kd (GST-TET2 CR W1291R) [nM] | Kd [2] [nM] | Substance
1 | 688 | 11000 |  | histone H3_(21-44) K36me1 peptide (from UniProt P68431 22-45)
2 | 734 | 27500 |  | histone H3_(21-44) K36me2 peptide (from UniProt P68431 22-45)
3 | 21000 | 946 |  | histone H3_(21-44) unmodified peptide (from UniProt P68431 22-45)
4 |  |  | 387 | mononucleosome (complex)
